# From the RNAGym collection of RNA variant scans (doi:10.1021/acssynbio.7b00057)
# B1: Pistol ribozyme (parent)
# chain: GGGUCGUUGUUCCAUAAUCGCGUGGAUAUGGCACGCAAGUUUCUACCGGGCACCGUAAAUGUCCGACUGGAGCCGUUCGGGCGGCUAUAAACAGACCUCAGGCCCGAAGCGUGGCGGCACCUGCCGCCGGUGGUAAAAAAGAUCGGAAGAGCACACGUCU
# Variants of: B1
# Assay: aptazyme ON/OFF ratio, guanine; higher = stronger switching; co-transcriptional cleavage with and without guanine
row,Variant,aptazyme ON/OFF ratio
1,GGGUCGGUUUGCUAUAAUCGCGUGGAUAUGGCACGCAAGUUUCUACCGGGCACCGUAAAUGUCCGACUGGAGCCGUUCGGGCGGCUAUAAACAGACCUCAGGCCCGAAGCGUGGCGGCACCUGCCGCCGGUGGUAAAAAAGAUCGGAAGAGCACACGUCU,1.26
2,GGGUCGAGAAAGCAUAAUCGCGUGGAUAUGGCACGCAAGUUUCUACCGGGCACCGUAAAUGUCCGACUGGAGCCGUUCGGGCGGCUAUAAACAGACCUCAGGCCCGAAGCGUGGCGGCACCUGCCGCCGGUGGUAAAAAAGAUCGGAAGAGCACACGUCU,1.46
3,GGGUCGUCGAGACAUAAUCGCGUGGAUAUGGCACGCAAGUUUCUACCGGGCACCGUAAAUGUCCGACUGGAGCCGUUCGGGCGGCUAUAAACAGACCUCAGGCCCGAAGCGUGGCGGCACCUGCCGCCGGUGGUAAAAAAGAUCGGAAGAGCACACGUCU,1.06
4,GGGUCGUGGGAACAUAAUCGCGUGGAUAUGGCACGCAAGUUUCUACCGGGCACCGUAAAUGUCCGACUGGAGCCGUUCGGGCGGCUAUAAACAGACCUCAGGCCCGAAGCGUGGCGGCACCUGCCGCCGGUGGUAAAAAAGAUCGGAAGAGCACACGUCU,1.18
5,GGGUCGUUGUUUUAUAAUCGCGUGGAUAUGGCACGCAAGUUUCUACCGGGCACCGUAAAUGUCCGACUGGAGCCGUUCGGGCGGCUAUAAACAGACCUCAGGCCCGAAGCGUGGCGGCACCUGCCGCCGGUGGUAAAAAAGAUCGGAAGAGCACACGUCU,1.26
6,GGGUCGCGUAAUUAUAAUCGCGUGGAUAUGGCACGCAAGUUUCUACCGGGCACCGUAAAUGUCCGACUGGAGCCGUUCGGGCGGCUAUAAACAGACCUCAGGCCCGAAGCGUGGCGGCACCUGCCGCCGGUGGUAAAAAAGAUCGGAAGAGCACACGUCU,1.25
7,GGGUCGUACUUCAAUAAUCGCGUGGAUAUGGCACGCAAGUUUCUACCGGGCACCGUAAAUGUCCGACUGGAGCCGUUCGGGCGGCUAUAAACAGACCUCAGGCCCGAAGCGUGGCGGCACCUGCCGCCGGUGGUAAAAAAGAUCGGAAGAGCACACGUCU,1.11
8,GGGUCGCCAUUCGAUAAUCGCGUGGAUAUGGCACGCAAGUUUCUACCGGGCACCGUAAAUGUCCGACUGGAGCCGUUCGGGCGGCUAUAAACAGACCUCAGGCCCGAAGCGUGGCGGCACCUGCCGCCGGUGGUAAAAAAGAUCGGAAGAGCACACGUCU,1.11
9,GGGUCGAACCCGAAUAAUCGCGUGGAUAUGGCACGCAAGUUUCUACCGGGCACCGUAAAUGUCCGACUGGAGCCGUUCGGGCGGCUAUAAACAGACCUCAGGCCCGAAGCGUGGCGGCACCUGCCGCCGGUGGUAAAAAAGAUCGGAAGAGCACACGUCU,1.02
10,GGGUCGCCAUCUUAUAAUCGCGUGGAUAUGGCACGCAAGUUUCUACCGGGCACCGUAAAUGUCCGACUGGAGCCGUUCGGGCGGCUAUAAACAGACCUCAGGCCCGAAGCGUGGCGGCACCUGCCGCCGGUGGUAAAAAAGAUCGGAAGAGCACACGUCU,1.18
11,GGGUCGAUACUUCAUAAUCGCGUGGAUAUGGCACGCAAGUUUCUACCGGGCACCGUAAAUGUCCGACUGGAGCCGUUCGGGCGGCUAUAAACAGACCUCAGGCCCGAAGCGUGGCGGCACCUGCCGCCGGUGGUAAAAAAGAUCGGAAGAGCACACGUCU,1.26
12,GGGUCGGCUAUAUAUAAUCGCGUGGAUAUGGCACGCAAGUUUCUACCGGGCACCGUAAAUGUCCGACUGGAGCCGUUCGGGCGGCUAUAAACAGACCUCAGGCCCGAAGCGUGGCGGCACCUGCCGCCGGUGGUAAAAAAGAUCGGAAGAGCACACGUCU,1.24
13,GGGUCGGUUAAGGAUAAUCGCGUGGAUAUGGCACGCAAGUUUCUACCGGGCACCGUAAAUGUCCGACUGGAGCCGUUCGGGCGGCUAUAAACAGACCUCAGGCCCGAAGCGUGGCGGCACCUGCCGCCGGUGGUAAAAAAGAUCGGAAGAGCACACGUCU,1.11
14,GGGUCGGAUCGAAAUAAUCGCGUGGAUAUGGCACGCAAGUUUCUACCGGGCACCGUAAAUGUCCGACUGGAGCCGUUCGGGCGGCUAUAAACAGACCUCAGGCCCGAAGCGUGGCGGCACCUGCCGCCGGUGGUAAAAAAGAUCGGAAGAGCACACGUCU,1.08
15,GGGUCGUACACGUAUAAUCGCGUGGAUAUGGCACGCAAGUUUCUACCGGGCACCGUAAAUGUCCGACUGGAGCCGUUCGGGCGGCUAUAAACAGACCUCAGGCCCGAAGCGUGGCGGCACCUGCCGCCGGUGGUAAAAAAGAUCGGAAGAGCACACGUCU,1.07
16,GGGUCGGUGAAGAAUAAUCGCGUGGAUAUGGCACGCAAGUUUCUACCGGGCACCGUAAAUGUCCGACUGGAGCCGUUCGGGCGGCUAUAAACAGACCUCAGGCCCGAAGCGUGGCGGCACCUGCCGCCGGUGGUAAAAAAGAUCGGAAGAGCACACGUCU,1.05
17,GGGUCGUCCAGUUAUAAUCGCGUGGAUAUGGCACGCAAGUUUCUACCGGGCACCGUAAAUGUCCGACUGGAGCCGUUCGGGCGGCUAUAAACAGACCUCAGGCCCGAAGCGUGGCGGCACCUGCCGCCGGUGGUAAAAAAGAUCGGAAGAGCACACGUCU,1.22
18,GGGUCGAUGGGCGAUAAUCGCGUGGAUAUGGCACGCAAGUUUCUACCGGGCACCGUAAAUGUCCGACUGGAGCCGUUCGGGCGGCUAUAAACAGACCUCAGGCCCGAAGCGUGGCGGCACCUGCCGCCGGUGGUAAAAAAGAUCGGAAGAGCACACGUCU,1.16

row,Variant,aptazyme ON/OFF ratio
1,GGGUCGGCACCGAAUAAUCGCGUGGAUAUGGCACGCAAGUUUCUACCGGGCACCGUAAAUGUCCGACUGGAGCCGUUCGGGCGGCUAUAAACAGACCUCAGGCCCGAAGCGUGGCGGCACCUGCCGCCGGUGGUAAAAAAGAUCGGAAGAGCACACGUCU,1.15
2,GGGUCGUACAUCGAUAAUCGCGUGGAUAUGGCACGCAAGUUUCUACCGGGCACCGUAAAUGUCCGACUGGAGCCGUUCGGGCGGCUAUAAACAGACCUCAGGCCCGAAGCGUGGCGGCACCUGCCGCCGGUGGUAAAAAAGAUCGGAAGAGCACACGUCU,1.06
3,GGGUCGACACAGGAUAAUCGCGUGGAUAUGGCACGCAAGUUUCUACCGGGCACCGUAAAUGUCCGACUGGAGCCGUUCGGGCGGCUAUAAACAGACCUCAGGCCCGAAGCGUGGCGGCACCUGCCGCCGGUGGUAAAAAAGAUCGGAAGAGCACACGUCU,1.22
4,GGGUCGGACUUUGAUAAUCGCGUGGAUAUGGCACGCAAGUUUCUACCGGGCACCGUAAAUGUCCGACUGGAGCCGUUCGGGCGGCUAUAAACAGACCUCAGGCCCGAAGCGUGGCGGCACCUGCCGCCGGUGGUAAAAAAGAUCGGAAGAGCACACGUCU,1.06
5,GGGUCGCUACACAAUAAUCGCGUGGAUAUGGCACGCAAGUUUCUACCGGGCACCGUAAAUGUCCGACUGGAGCCGUUCGGGCGGCUAUAAACAGACCUCAGGCCCGAAGCGUGGCGGCACCUGCCGCCGGUGGUAAAAAAGAUCGGAAGAGCACACGUCU,1.18
6,GGGUCGGCGCCCGAUAAUCGCGUGGAUAUGGCACGCAAGUUUCUACCGGGCACCGUAAAUGUCCGACUGGAGCCGUUCGGGCGGCUAUAAACAGACCUCAGGCCCGAAGCGUGGCGGCACCUGCCGCCGGUGGUAAAAAAGAUCGGAAGAGCACACGUCU,1.04
7,GGGUCGGCAUUACAUAAUCGCGUGGAUAUGGCACGCAAGUUUCUACCGGGCACCGUAAAUGUCCGACUGGAGCCGUUCGGGCGGCUAUAAACAGACCUCAGGCCCGAAGCGUGGCGGCACCUGCCGCCGGUGGUAAAAAAGAUCGGAAGAGCACACGUCU,1.06
8,GGGUCGUUUUCACAUAAUCGCGUGGAUAUGGCACGCAAGUUUCUACCGGGCACCGUAAAUGUCCGACUGGAGCCGUUCGGGCGGCUAUAAACAGACCUCAGGCCCGAAGCGUGGCGGCACCUGCCGCCGGUGGUAAAAAAGAUCGGAAGAGCACACGUCU,2
9,GGGUCGGCUAACAAUAAUCGCGUGGAUAUGGCACGCAAGUUUCUACCGGGCACCGUAAAUGUCCGACUGGAGCCGUUCGGGCGGCUAUAAACAGACCUCAGGCCCGAAGCGUGGCGGCACCUGCCGCCGGUGGUAAAAAAGAUCGGAAGAGCACACGUCU,1.3
10,GGGUCGGGUGUACAUAAUCGCGUGGAUAUGGCACGCAAGUUUCUACCGGGCACCGUAAAUGUCCGACUGGAGCCGUUCGGGCGGCUAUAAACAGACCUCAGGCCCGAAGCGUGGCGGCACCUGCCGCCGGUGGUAAAAAAGAUCGGAAGAGCACACGUCU,1.44
11,GGGUCGCAUCUCCAUAAUCGCGUGGAUAUGGCACGCAAGUUUCUACCGGGCACCGUAAAUGUCCGACUGGAGCCGUUCGGGCGGCUAUAAACAGACCUCAGGCCCGAAGCGUGGCGGCACCUGCCGCCGGUGGUAAAAAAGAUCGGAAGAGCACACGUCU,3.35
12,GGGUCGUACUCGCAUAAUCGCGUGGAUAUGGCACGCAAGUUUCUACCGGGCACCGUAAAUGUCCGACUGGAGCCGUUCGGGCGGCUAUAAACAGACCUCAGGCCCGAAGCGUGGCGGCACCUGCCGCCGGUGGUAAAAAAGAUCGGAAGAGCACACGUCU,1.07
13,GGGUCGAGGGUCUAUAAUCGCGUGGAUAUGGCACGCAAGUUUCUACCGGGCACCGUAAAUGUCCGACUGGAGCCGUUCGGGCGGCUAUAAACAGACCUCAGGCCCGAAGCGUGGCGGCACCUGCCGCCGGUGGUAAAAAAGAUCGGAAGAGCACACGUCU,1.55
14,GGGUCGCAAGCCGAUAAUCGCGUGGAUAUGGCACGCAAGUUUCUACCGGGCACCGUAAAUGUCCGACUGGAGCCGUUCGGGCGGCUAUAAACAGACCUCAGGCCCGAAGCGUGGCGGCACCUGCCGCCGGUGGUAAAAAAGAUCGGAAGAGCACACGUCU,1.05
15,GGGUCGUUUGGUGAUAAUCGCGUGGAUAUGGCACGCAAGUUUCUACCGGGCACCGUAAAUGUCCGACUGGAGCCGUUCGGGCGGCUAUAAACAGACCUCAGGCCCGAAGCGUGGCGGCACCUGCCGCCGGUGGUAAAAAAGAUCGGAAGAGCACACGUCU,1.17
16,GGGUCGCGGCUCCAUAAUCGCGUGGAUAUGGCACGCAAGUUUCUACCGGGCACCGUAAAUGUCCGACUGGAGCCGUUCGGGCGGCUAUAAACAGACCUCAGGCCCGAAGCGUGGCGGCACCUGCCGCCGGUGGUAAAAAAGAUCGGAAGAGCACACGUCU,1.34
17,GGGUCGGCCAUCAAUAAUCGCGUGGAUAUGGCACGCAAGUUUCUACCGGGCACCGUAAAUGUCCGACUGGAGCCGUUCGGGCGGCUAUAAACAGACCUCAGGCCCGAAGCGUGGCGGCACCUGCCGCCGGUGGUAAAAAAGAUCGGAAGAGCACACGUCU,1.08
18,GGGUCGACUAGUAAUAAUCGCGUGGAUAUGGCACGCAAGUUUCUACCGGGCACCGUAAAUGUCCGACUGGAGCCGUUCGGGCGGCUAUAAACAGACCUCAGGCCCGAAGCGUGGCGGCACCUGCCGCCGGUGGUAAAAAAGAUCGGAAGAGCACACGUCU,1.17
